From the supplement of paper PMC12636428

Tested on: Saccharomyces cerevisiae
Experiment: transcriptional activation domain activity (GFP:mCherry ratio, weighted mean of sorted bins, harmonized to initial dataset scale) (arbitrary fluorescence ratio units); higher = stronger transcriptional activation
Conditions: beta-estradiol 1 µM; induction time 4 h
Procedure, shortened: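 The listed activation activity is a read-weighted mean of bin median fluorescence, averaged across barcodes and linearly mapped onto the initial dataset scale. Barcoded tiles, fused to an estradiol-inducible synthetic transcription factor, were integrated at URA3 in yeast diploids bearing a GFP reporter. Cells were held 4 hours at 30 °C in SC with 1 uM beta-estradiol, sorted into 8 GFP:mCherry bins, and sequenced, and tiles with fewer than 50 reads were excluded.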

For “RNILLFTMVADGESSLVIWSIFYHFFLDDNSLGLLLAQCRKLVQISNDMQTWM”, the “transcriptional activation domain activity” value was 58900.
In the case of “MKLPWDDSVTIFLVNYVDFLLLFPFVLLMEFIFDDLPWLSLYVLKHYYNILYM”, the “transcriptional activation domain activity” value was 38600.
For “IKKGAASPSKKGGRGSAKAKKEESDDEDVKPAKKAKGAAAAKGKPKGKALKKE”, the “transcriptional activation domain activity” value was 24200.
“ITNFSHPVSWLGTISPLSSLISSSLSFLSEFFSLFPLFFSFFLLFSPSISSWF” was tested, and the “transcriptional activation domain activity” value was 67500.
“YTNVYRCIKDEVYLLLSRLSLNWRKQDDYIWLLNLWTIWAAPWRLGNVPIISG” was tested, and the “transcriptional activation domain activity” value was 53500.
In the case of “MYYILMFLIYTCQLLLLLINLHWLAVACDTFPSWPLMQTNFYFCLLLLVTLFR”, the “transcriptional activation domain activity” value was 31900.
For “ANRRMSLVCFLFIVVRYVSIAALVLNGVGFYGTMFDMDSCTHFRLAPPVTKMV”, the “transcriptional activation domain activity” value was 44900.
In the case of “GAGGAMGAALKHAVRDLAALSTAVSGAWVVEAITSSCSRRSIAVLVSRALAAM”, the “transcriptional activation domain activity” value was 42000.
“IPYVAQEYGFDYELVTYKWPSWLRAQKEKQRVIWAYKILFLDVLFPLDLKKVI” was tested, and the “transcriptional activation domain activity” value was 62100.
With “SQVNKGKVQVWVMYFSFSFFFLFFIHLVCWFLLFCFFFFFVPFIIPLFFFFFL” the “transcriptional activation domain activity” value was 32300.
“RRKRRERREEERGRDKQGEEGGGRKGGGNRKEGGGGRRGRRSRGGGGGGAEGA” was tested, and the “transcriptional activation domain activity” value was 27800.
For “PQSANITGACTELGEHTDCPIWNLLDARSLFRSCADLLISSWTWWWLAACRYV”, the “transcriptional activation domain activity” value was 44700.
In the case of “TLLFQIVIAFIDILRHLSLYKIEIENDTICALVGASMNFSDHIYVAFNTLLAI”, the “transcriptional activation domain activity” value was 49500.
For “TISRLVFAECFAESCVMFLLLMFQALDVLEPSSRLLNWRISLYILMSMILLFV”, the “transcriptional activation domain activity” value was 52800.
For “DRPRRDRADDKEATTPRSDAGSHKSRRRSRSRDDERRHSRRHRGGDGDFYRGG”, the “transcriptional activation domain activity” value was 17700.
“MYHISCWFIFFHLLMSHIFIFIFIFLLLLFYKCIIFLFLYTYFFYFLVFSRLL” was tested, and the “transcriptional activation domain activity” value was 25700.
For “DAEYMCQYHGSLIGKHFKSLAQVMPFVIYGLVHEDVLHAWNIIGTLLVLLWHT”, the “transcriptional activation domain activity” value was 33500.
With “MLSFVIVRLLTSHLQLVWRAALLLCKPLCICPLQFLYDRESHYNLLCNEAVVF” the “transcriptional activation domain activity” value was 68500.
In the case of “MPGVTGHHLTSWYWLSFIFIFLFYFALLVVFIWVIFSYLFTHLIRFGHAVVVS”, the “transcriptional activation domain activity” value was 29000.
In the case of “GDKEKRKTSRRSRSPSRGRHQRRGGGGGEESRPRSESPRRRRRRLDSSARRDD”, the “transcriptional activation domain activity” value was 44400.
For “EHFAGNNHVNRVVNFVQSCFTFYAPKMCKYYTEILQALFSQPTWWMVCCCGFW”, the “transcriptional activation domain activity” value was 46200.
For “GMEGERVKESIRRVQHQGADELYRRSQEKNGKGLRLSQSKTRSRGETPLQLIA”, the “transcriptional activation domain activity” value was 63100.
In the case of “GTGDEQTGSGEKGKKKKASRACYHCQKAHLTCDDARPCGRCVKRNLASTCTDG”, the “transcriptional activation domain activity” value was 40600.
“GHWSYFRNSSMILNFFYKNIIGIGVLFWFQIFCGWSTTYVFAYVYLLFWNVFW” was tested, and the “transcriptional activation domain activity” value was 51500.
With “MMFCLRSFIPLLLLPLPPSLSPLHLVLLLFLTYILNRPCIYCSFLLLILFVSS” the “transcriptional activation domain activity” value was 60600.
“IQAEGLYDCRYSSYGIELLRYAFYFGMFLFLLRSGWYITSSVFLGTLWHQLSF” was tested, and the “transcriptional activation domain activity” value was 21100.
With “TWHHSIYVPYSFVAAYDHPVCYLIHRFLPLYLTAITFRFHIMTYLLLVGLFSL” the “transcriptional activation domain activity” value was 45200.
In the case of “CLLICIEYLTLSSLLDINVLLTTIVLHSLSLSSNLEVVRVVRRFFWVRCINLL”, the “transcriptional activation domain activity” value was 47200.
“GEVTEAEANGEAPKPEGEAAAEASPKPRKKKSPRKKKAAAPAEGEAAATEATA” was tested, and the “transcriptional activation domain activity” value was 19600.
In the case of “MWGILYSLQYHQNFPFVACFLSDLFEKIIHHHFFYFSLSSFSLFLIFHFWFFF”, the “transcriptional activation domain activity” value was 52000.
For “IILRIVGAPNWIQFWSLGRNQVDLLLVISTCVIQLPMIQNLDIYKYLTIFQVF”, the “transcriptional activation domain activity” value was 81300.
In the case of “DQDAVMEDAPEANAETESQNSRRRRSRGKGRKSGASMAENVKVEQQAEAGSEN”, the “transcriptional activation domain activity” value was 29300.
For “FYFSWIAQEKYTDAFLLKPLGHYLGTRQLNQENIFIAYYIFVLACHYTFLYVS”, the “transcriptional activation domain activity” value was 33300.
With “SQKKHCELCKTAFRFTKLYSPDMPKHLPFHIFVHHMTRYLIRNFLVWLRAALV” the “transcriptional activation domain activity” value was 61500.
With “PPWVDDCNPFLTDVYYLGSLLKRTFFVVYELTYKDFLFLLTLPVHRTPFLLCN” the “transcriptional activation domain activity” value was 50900.
“MFPGLQYTLLCIHLSCDFIICCRAFLPYYLCFSHYFPVLMCPVSPVLILVWFI” was tested, and the “transcriptional activation domain activity” value was 53600.
“LLKYAEWLIKPEQNNGSWVADVLWPVLNLDLQWISSHWNESSWDLWWPPIWGG” was tested, and the “transcriptional activation domain activity” value was 32400.
“GRAESPYNAKYLTGAFSSGSSNGAATATAASFAVFGMGSETVSSGRSPASNNA” was tested, and the “transcriptional activation domain activity” value was 44500.
In the case of “KKQEERKEGYRRKVEENKEKREGREKREKDEFWRREGKKRRYQEGDGAGAGAG”, the “transcriptional activation domain activity” value was 38100.
For “LGVVFWCWCGLLGLKIQLYAGSYIKFRSVVIVMLIVLEIFEISINVSVCVIFH”, the “transcriptional activation domain activity” value was 53000.
With “EGEKKDQESDEKESNEEKKDDVEKLTKEMDKVTIKGEKKILGKSKGFGFVCFS” the “transcriptional activation domain activity” value was 7730.
For “MSLLWIYFLSFFPFFCQNLTLLCFYAHIWTLRITPTFVLAFHLVYPLIIHLPV”, the “transcriptional activation domain activity” value was 27100.
“WWGDTYFLFFPCLMYKFHVGFCLYMKWEMLYLLLFGRACDVFIMIGVVAVHVL” was tested, and the “transcriptional activation domain activity” value was 62400.
With “MEILKLPFYILHVLPLPIRGALATLTPLVRFHTVVVSLSCLLSLRCIYLLFFH” the “transcriptional activation domain activity” value was 75300.
“GTAHHHDPNDPKRPRACEACRGLKVRCEPDPTNPNPDGPCKRCAKAGRACLVT” was tested, and the “transcriptional activation domain activity” value was under 6570.
“ADEEDLSSKPRCQRCRKSKKGCDRQRPCGRCKDAGIGIEGCVSEDEGNGRKGR” was tested, and the “transcriptional activation domain activity” value was under 6570.
In the case of “MISWLLCFFGFRGGFFYMVFFLICTIFCFAVFGFRFLQLSTFFFHNIFLMFFF”, the “transcriptional activation domain activity” value was 51900.
For “FDAALQHCRHGIMILNNSSRPEWMCQYLVPIFRRLSITPFFFGGVRPTRLPQL”, the “transcriptional activation domain activity” value was 68800.
“MSFFCLFHQLFDISCIFIYLILLENHFSLLCYLLLIFNFNCYFVIFSFLVLNF” was tested, and the “transcriptional activation domain activity” value was 54800.
“IYVELYFILSSIWFSRIYYMFGFLFLCYGLMIMTCATVTILMVYFLLCAENYN” was tested, and the “transcriptional activation domain activity” value was 58300.
In the case of “MLIGTVFLICSLNLCLLFLGWAWGCIVLYLDDLNILLLSCLFTFFLCTFTFFS”, the “transcriptional activation domain activity” value was 40900.
For “YRALHQRIWDEGLYECNYRAYAIECTRYVLLFTLMWVCLYFQRYFLGAFFLGA”, the “transcriptional activation domain activity” value was 83700.
For “YSNSISNSNSNSTGNLNSSYFNSLNIDSMLDDYVSSDLLLNDDDDDTNLSRRR”, the “transcriptional activation domain activity” value was 88700.
“SKVYLLKHFEGYIMGKLYGDYEYTFLDLQRTKGMHFVQKYLRMKHVIVFKLSH” was tested, and the “transcriptional activation domain activity” value was 58700.
In the case of “DPTSRAPTAVRVRVKHSSGEEQEEEERLPADGVVICAGPWTGRVARRLLGEKV”, the “transcriptional activation domain activity” value was 37200.
In the case of “MLYIIMKINLFMKVIMLFLVKLIVHYLMILLSLVLLLILLSSFIYICYILVLF”, the “transcriptional activation domain activity” value was 37800.
In the case of “ESDEPEQQRAKSQSRRRQSRGRGRKGGSESEAERSDVSASGGGRRNRQRQKKQ”, the “transcriptional activation domain activity” value was 9900.
With “REGGGEGGGAQDGSSAPKKKRLGRKERIKSKAAGGDTGGEGADGAAASPEGAG” the “transcriptional activation domain activity” value was 39600.
For “ASSASTGKGEEEEEDGEEKVRGKGKGQGQGQSQGQGQGQGQEAQERRDDEASA”, the “transcriptional activation domain activity” value was 31700.
“DLCFWLLDVCVLFSPGSCRLHQLSDKYFVEQLVLMNVFLIQVLLKFVFPLGRA” was tested, and the “transcriptional activation domain activity” value was 74800.
In the case of “MLEGILGWSKWQKYSIKWYIWLPRLFFQSFFPFFSCPISLQKFSVLLFHFFFL”, the “transcriptional activation domain activity” value was 59700.
For “WLLSVYILGFLAFELASVLIAIRVVAIWRRARPVLVFVVVALLTQFSFIIYLS”, the “transcriptional activation domain activity” value was 23300.
With “SRRPAKKVKEEGEKKAASGDKKGRGKALSEKSKPDAKGSKAKSKHKKDSDSEE” the “transcriptional activation domain activity” value was 24900.
In the case of “SQWRGVVALKLQIVKTLMKIRMVFPGLMTGLSLEYFSVIWTELNNALPIYLNF”, the “transcriptional activation domain activity” value was 48000.
“DWESIGAASLRNNSLAPNIDSVASSTNGVVSPKPTNPSFTNSQNGDIEPPLQH” was tested, and the “transcriptional activation domain activity” value was 46900.
In the case of “AGEAPIAEGQQAQEARPAAEGAGAGTENQPGRAEGEAAKAEAQAEQQQQQGQA”, the “transcriptional activation domain activity” value was 10300.
With “SVGASSGSGSGSGKRRGEEGEEGDEGEEGEEGDEGEEGDEEEGVEELVQGEGQ” the “transcriptional activation domain activity” value was 7800.
In the case of “HMLLRQFLILNLFNLIYLHLFLLLWLLLQQLLYLMILFKFPIPYLLALSYRLS”, the “transcriptional activation domain activity” value was 55300.
With “AYHSAKHVIVPNDGKLLAMTDPLISDLDEDGQKGLLIISRGTALLLLGVYIAY” the “transcriptional activation domain activity” value was 47300.
For “RHHPEIINALVTLIATASTTHVKYTFQGILDHYSYYVLVDGFTLKQLTWMQGI”, the “transcriptional activation domain activity” value was 62700.
For “PRTASRRAARSARPRRQSSPRPKGRRSNTRPSKRASVSPAKDSDASDGDDERE”, the “transcriptional activation domain activity” value was 19400.
With “QTRQDEDHWQRVRELENQSSLYYLPIHEETPFFIDLIPNGFYLETKRSADNLF” the “transcriptional activation domain activity” value was 92000.
“RCWFILLYVMPNIAGTFGLRYVPLQNHVARLWCYYLTGPYNASFVLTLSLVIA” was tested, and the “transcriptional activation domain activity” value was 37400.
In the case of “MAGAVPVLMLILLQLSHLCTAFKFYSESGFALVRKILLTALPTFEPHHYQMDG”, the “transcriptional activation domain activity” value was 64300.
In the case of “LFSDTSFTIVFSNNVSFTYISFDKKVFFCIFFFLLVYFCQTFSFFLLFFLFFL”, the “transcriptional activation domain activity” value was 44400.
With “SLNVLACGAIILFPRLAFLVVNNNAIVLGLRVMFVKFVFVCLLALWCFAGFLL” the “transcriptional activation domain activity” value was 69300.
In the case of “ADCAVIGVNSEEEATELPRAYVVHAKGIPPSEQAAFGVSVQEWVKSRVARHKQ”, the “transcriptional activation domain activity” value was 80600.
“SSATDSNPNTNLEDSLFFDHDLLSSSITNTNNGQGSNNGRQASKDDTLNLLDT” was tested, and the “transcriptional activation domain activity” value was 37900.
For “ISLVYGVRLAIRSSIFVTVRTHLARSIRYQSGLRAKQPIPTRLFLLYFLQLKY”, the “transcriptional activation domain activity” value was 56900.
In the case of “MSSSEPLTEQTAALSVAEGDADGNVPIGPDGKPLSKSAIKKLQKEKEKAEKAA”, the “transcriptional activation domain activity” value was 39500.
With “HAGTMESHPHTNIHEELKEFLSGDLIEAEDNAKLMFGDDNSNPADYLLEFGSG” the “transcriptional activation domain activity” value was 72500.
For “PAEVKLIWTRPVTLTKVIFVFVRYSIALCQVTAVYVLLIVRVYTLWDHRRAIL”, the “transcriptional activation domain activity” value was 70300.
With “CSCSAGTRTSSSASSSAWRGASSSSSSRCSATRSSIARSRRTRSSCCARTRTC” the “transcriptional activation domain activity” value was 36200.
